Measured values reported in paper PMC5691136, “The role of CXCR3/LRP1 cross-talk in the invasion of primary brain tumors” (Nature Communications, 2017).

Target: CXCR3-A (human CXC chemokine receptor CXCR3, isoform A), stably expressed in U87 cells (human) (UniProt P49682)
Experiment: plasmon waveguide resonance (PWR); membrane fragments of U87-CXCR3-A or HEK-CXCR3-A cells captured on the polylysine-treated silica sensor; ligand added incrementally in PBS, 22 °C; shifts of the resonance minimum fitted with a hyperbolic single-site function

Chain of CXCR3-A (human CXC chemokine receptor CXCR3, isoform A), stably expressed in U87 cells (human) (P49682 whole entry, the tested form may be a part, canonical isoform): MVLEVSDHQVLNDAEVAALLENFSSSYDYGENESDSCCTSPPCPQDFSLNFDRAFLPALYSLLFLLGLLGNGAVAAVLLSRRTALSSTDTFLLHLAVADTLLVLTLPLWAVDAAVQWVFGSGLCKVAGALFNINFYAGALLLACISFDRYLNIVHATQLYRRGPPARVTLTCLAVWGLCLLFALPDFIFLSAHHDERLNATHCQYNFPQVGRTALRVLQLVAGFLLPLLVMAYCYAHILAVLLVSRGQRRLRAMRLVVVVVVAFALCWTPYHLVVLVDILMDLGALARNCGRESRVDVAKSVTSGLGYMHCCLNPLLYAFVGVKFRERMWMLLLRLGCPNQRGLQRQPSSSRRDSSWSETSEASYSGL

Kd: 36 nM
Substance: PS372424 (CXCR3 agonist) (peptide)
